One molecule from patent US20170137466A1 (UNIVERSITY OF SOUTHAMPTON, published 2017) can be followed below.

The assay addresses T1, HLA-Cw*0102.
T1 construct: whole, on cells; MHC class I molecule on cells, as the partner that takes up the peptide; also called cell surface MHC class I of L721.174 cells
Briefly: MHC class I stabilisation on L721.174 cells with increasing peptide, flow cytometry. Background: In flow cytometry, cells or beads pass a laser one at a time.

Description: Cells were stained for cell surface of MHC class I and analysed by flow cytometry. The mean fluorescence intensity of cell surface MHC Class I was plotted against the peptide concentration.
3×10⁵ cells were used per condition. Following washing in PBS the cells were stained for cell surface of MHC class I and analysed by flow cytometry. The mean fluorescence intensity of cell surface MHC Class I was plotted against the peptide concentration.

As for LNPSVAATL [peptide LNPSVAATL (SEQ ID NO: 1)], the binding result was “binds”.
